Consider 21 molecules from patent US20240117334A1, “FACTOR B PROTEASES” (Vertex Pharmaceuticals Incorporated, priority 2021, published 2024).

B1: chymase C22S/F41V/L99F/G151R/F173K/R217S/A226R (enzyme)
chain: IIGGTESKPHSRPYMAYLEIVTSNGPSKVCGGFLIRRNFVLTAAHCAGRSITVTLGAHNITEEEDTWQKLEVIKQFRHPKYNTSTFHHDIMLLKLKEKASLTLAVGTLPFPSQFNFVPPGRMCRVAGWGRTGVLKPRSDTLQEVKLRLMDPQACSHKRDFDHNLQLCVGNPRKTKSAFKGDSGGPLLCAGVAQGIVSYGSSDAKPPRVFTRISHYRPWINQILQAN
B2: chymase C22S/F41V/L99H/G151R/F173L/Y215R/R217T/A226R (enzyme)
chain: IIGGTESKPHSRPYMAYLEIVTSNGPSKVCGGFLIRRNFVLTAAHCAGRSITVTLGAHNITEEEDTWQKLEVIKQFRHPKYNTSTHHHDIMLLKLKEKASLTLAVGTLPFPSQFNFVPPGRMCRVAGWGRTGVLKPRSDTLQEVKLRLMDPQACSHLRDFDHNLQLCVGNPRKTKSAFKGDSGGPLLCAGVAQGIVSRGTSDAKPPRVFTRISHYRPWINQILQAN
B3: chymase C22S (enzyme)
chain: IIGGTESKPHSRPYMAYLEIVTSNGPSKFCGGFLIRRNFVLTAAHCAGRSITVTLGAHNITEEEDTWQKLEVIKQFRHPKYNTSTLHHDIMLLKLKEKASLTLAVGTLPFPSQFNFVPPGRMCRVAGWGRTGVLKPGSDTLQEVKLRLMDPQACSHFRDFDHNLQLCVGNPRKTKSAFKGDSGGPLLCAGVAQGIVSYGRSDAKPPAVFTRISHYRPWINQILQAN
B4: chymase C22S/K192R/A226R (enzyme)
chain: IIGGTESKPHSRPYMAYLEIVTSNGPSKFCGGFLIRRNFVLTAAHCAGRSITVTLGAHNITEEEDTWQKLEVIKQFRHPKYNTSTLHHDIMLLKLKEKASLTLAVGTLPFPSQFNFVPPGRMCRVAGWGRTGVLKPGSDTLQEVKLRLMDPQACSHFRDFDHNLQLCVGNPRKTKSAFRGDSGGPLLCAGVAQGIVSYGRSDAKPPRVFTRISHYRPWINQILQAN
B5: chymase F41V/L99H/G151V/F173Y/Y215K/R217G/A226R (enzyme)
chain: IIGGTECKPHSRPYMAYLEIVTSNGPSKVCGGFLIRRNFVLTAAHCAGRSITVTLGAHNITEEEDTWQKLEVIKQFRHPKYNTSTHHHDIMLLKLKEKASLTLAVGTLPFPSQFNFVPPGRMCRVAGWGRTGVLKPVSDTLQEVKLRLMDPQACSHYRDFDHNLQLCVGNPRKTKSAFKGDSGGPLLCAGVAQGIVSKGGSDAKPPRVFTRISHYRPWINQILQAN
B6: chymase C22S/F41G/L99H/F173L/Y215K/A226R (enzyme)
chain: IIGGTESKPHSRPYMAYLEIVTSNGPSKGCGGFLIRRNFVLTAAHCAGRSITVTLGAHNITEEEDTWQKLEVIKQFRHPKYNTSTHHHDIMLLKLKEKASLTLAVGTLPFPSQFNFVPPGRMCRVAGWGRTGVLKPGSDTLQEVKLRLMDPQACSHLRDFDHNLQLCVGNPRKTKSAFKGDSGGPLLCAGVAQGIVSKGRSDAKPPRVFTRISHYRPWINQILQAN
B7: chymase C22S/L160V/S189T/A226R (enzyme)
chain: IIGGTESKPHSRPYMAYLEIVTSNGPSKFCGGFLIRRNFVLTAAHCAGRSITVTLGAHNITEEEDTWQKLEVIKQFRHPKYNTSTLHHDIMLLKLKEKASLTLAVGTLPFPSQFNFVPPGRMCRVAGWGRTGVLKPGSDTLQEVKVRLMDPQACSHFRDFDHNLQLCVGNPRKTKTAFKGDSGGPLLCAGVAQGIVSYGRSDAKPPRVFTRISHYRPWINQILQAN
B8: chymase C22S/S218I/A226R (enzyme)
chain: IIGGTESKPHSRPYMAYLEIVTSNGPSKFCGGFLIRRNFVLTAAHCAGRSITVTLGAHNITEEEDTWQKLEVIKQFRHPKYNTSTLHHDIMLLKLKEKASLTLAVGTLPFPSQFNFVPPGRMCRVAGWGRTGVLKPGSDTLQEVKLRLMDPQACSHFRDFDHNLQLCVGNPRKTKSAFKGDSGGPLLCAGVAQGIVSYGRIDAKPPRVFTRISHYRPWINQILQAN
B9: chymase C22S/K93Q/G119D/F173S/K192R/A226R (enzyme)
chain: IIGGTESKPHSRPYMAYLEIVTSNGPSKFCGGFLIRRNFVLTAAHCAGRSITVTLGAHNITEEEDTWQKLEVIKQFRHPQYNTSTLHHDIMLLKLKEKASLTLAVDTLPFPSQFNFVPPGRMCRVAGWGRTGVLKPGSDTLQEVKLRLMDPQACSHSRDFDHNLQLCVGNPRKTKSAFRGDSGGPLLCAGVAQGIVSYGRSDAKPPRVFTRISHYRPWINQILQAN
B10: chymase C22S/L99R/F173Y/K192R/A226R (enzyme)
chain: IIGGTESKPHSRPYMAYLEIVTSNGPSKFCGGFLIRRNFVLTAAHCAGRSITVTLGAHNITEEEDTWQKLEVIKQFRHPKYNTSTRHHDIMLLKLKEKASLTLAVGTLPFPSQFNFVPPGRMCRVAGWGRTGVLKPGSDTLQEVKLRLMDPQACSHYRDFDHNLQLCVGNPRKTKSAFRGDSGGPLLCAGVAQGIVSYGRSDAKPPRVFTRISHYRPWINQILQAN
B11: chymase C22S/K111E/F173L/Y215H/A226R (enzyme)
chain: IIGGTESKPHSRPYMAYLEIVTSNGPSKFCGGFLIRRNFVLTAAHCAGRSITVTLGAHNITEEEDTWQKLEVIKQFRHPKYNTSTLHHDIMLLKLKEEASLTLAVGTLPFPSQFNFVPPGRMCRVAGWGRTGVLKPGSDTLQEVKLRLMDPQACSHLRDFDHNLQLCVGNPRKTKSAFKGDSGGPLLCAGVAQGIVSHGRSDAKPPRVFTRISHYRPWINQILQAN
B12: chymase C22S/V138I/L160V/S189T/A226R (enzyme)
chain: IIGGTESKPHSRPYMAYLEIVTSNGPSKFCGGFLIRRNFVLTAAHCAGRSITVTLGAHNITEEEDTWQKLEVIKQFRHPKYNTSTLHHDIMLLKLKEKASLTLAVGTLPFPSQFNFVPPGRMCRIAGWGRTGVLKPGSDTLQEVKVRLMDPQACSHFRDFDHNLQLCVGNPRKTKTAFKGDSGGPLLCAGVAQGIVSYGRSDAKPPRVFTRISHYRPWINQILQAN
B13: chymase E21G/C22S/R61H/M135T/F173Y/D175N/A209V/A226R (enzyme)
chain: IIGGTGSKPHSRPYMAYLEIVTSNGPSKFCGGFLIRRNFVLTAAHCAGHSITVTLGAHNITEEEDTWQKLEVIKQFRHPKYNTSTLHHDIMLLKLKEKASLTLAVGTLPFPSQFNFVPPGRTCRVAGWGRTGVLKPGSDTLQEVKLRLMDPQACSHYRNFDHNLQLCVGNPRKTKSAFKGDSGGPLLCAGVVQGIVSYGRSDAKPPRVFTRISHYRPWINQILQAN
B14: chymase C22S/M135T/P150S/S152G/Q166H/D175N/A190T/A226R (enzyme)
chain: IIGGTESKPHSRPYMAYLEIVTSNGPSKFCGGFLIRRNFVLTAAHCAGRSITVTLGAHNITEEEDTWQKLEVIKQFRHPKYNTSTLHHDIMLLKLKEKASLTLAVGTLPFPSQFNFVPPGRTCRVAGWGRTGVLKSGGDTLQEVKLRLMDPHACSHFRNFDHNLQLCVGNPRKTKSTFKGDSGGPLLCAGVAQGIVSYGRSDAKPPRVFTRISHYRPWINQILQAN
B15: chymase C22S/L99R/F173Y/S218L/A226R (enzyme)
chain: IIGGTESKPHSRPYMAYLEIVTSNGPSKFCGGFLIRRNFVLTAAHCAGRSITVTLGAHNITEEEDTWQKLEVIKQFRHPKYNTSTRHHDIMLLKLKEKASLTLAVGTLPFPSQFNFVPPGRMCRVAGWGRTGVLKPGSDTLQEVKLRLMDPQACSHYRDFDHNLQLCVGNPRKTKSAFKGDSGGPLLCAGVAQGIVSYGRLDAKPPRVFTRISHYRPWINQILQAN
B16: chymase C22S/L99R/K192R/S218L/A226R (enzyme)
chain: IIGGTESKPHSRPYMAYLEIVTSNGPSKFCGGFLIRRNFVLTAAHCAGRSITVTLGAHNITEEEDTWQKLEVIKQFRHPKYNTSTRHHDIMLLKLKEKASLTLAVGTLPFPSQFNFVPPGRMCRVAGWGRTGVLKPGSDTLQEVKLRLMDPQACSHFRDFDHNLQLCVGNPRKTKSAFRGDSGGPLLCAGVAQGIVSYGRLDAKPPRVFTRISHYRPWINQILQAN
B17: chymase C22S/F173Y/A226R (enzyme)
chain: IIGGTESKPHSRPYMAYLEIVTSNGPSKFCGGFLIRRNFVLTAAHCAGRSITVTLGAHNITEEEDTWQKLEVIKQFRHPKYNTSTLHHDIMLLKLKEKASLTLAVGTLPFPSQFNFVPPGRMCRVAGWGRTGVLKPGSDTLQEVKLRLMDPQACSHYRDFDHNLQLCVGNPRKTKSAFKGDSGGPLLCAGVAQGIVSYGRSDAKPPRVFTRISHYRPWINQILQAN
B18: chymase C22S/F173L/Y215H/A226R (enzyme)
chain: IIGGTESKPHSRPYMAYLEIVTSNGPSKFCGGFLIRRNFVLTAAHCAGRSITVTLGAHNITEEEDTWQKLEVIKQFRHPKYNTSTLHHDIMLLKLKEKASLTLAVGTLPFPSQFNFVPPGRMCRVAGWGRTGVLKPGSDTLQEVKLRLMDPQACSHLRDFDHNLQLCVGNPRKTKSAFKGDSGGPLLCAGVAQGIVSHGRSDAKPPRVFTRISHYRPWINQILQAN
B19: chymase C22S/P38Q/H100P/L116R/F123L/Q180H/A226R/R235S (enzyme)
chain: IIGGTESKPHSRPYMAYLEIVTSNGQSKFCGGFLIRRNFVLTAAHCAGRSITVTLGAHNITEEEDTWQKLEVIKQFRHPKYNTSTLPHDIMLLKLKEKASLTRAVGTLPLPSQFNFVPPGRMCRVAGWGRTGVLKPGSDTLQEVKLRLMDPQACSHFRDFDHNLHLCVGNPRKTKSAFKGDSGGPLLCAGVAQGIVSYGRSDAKPPRVFTRISHYSPWINQILQAN
B20: chymase C22S/S189T/A226R (enzyme)
chain: IIGGTESKPHSRPYMAYLEIVTSNGPSKFCGGFLIRRNFVLTAAHCAGRSITVTLGAHNITEEEDTWQKLEVIKQFRHPKYNTSTLHHDIMLLKLKEKASLTLAVGTLPFPSQFNFVPPGRMCRVAGWGRTGVLKPGSDTLQEVKLRLMDPQACSHFRDFDHNLQLCVGNPRKTKTAFKGDSGGPLLCAGVAQGIVSYGRSDAKPPRVFTRISHYRPWINQILQAN
B21: chymase C22S/V138L/A226R (enzyme)
chain: IIGGTESKPHSRPYMAYLEIVTSNGPSKFCGGFLIRRNFVLTAAHCAGRSITVTLGAHNITEEEDTWQKLEVIKQFRHPKYNTSTLHHDIMLLKLKEKASLTLAVGTLPFPSQFNFVPPGRMCRLAGWGRTGVLKPGSDTLQEVKLRLMDPQACSHFRDFDHNLQLCVGNPRKTKSAFKGDSGGPLLCAGVAQGIVSYGRSDAKPPRVFTRISHYRPWINQILQAN

One assay concerns the target EGVD/AE-ACT. Briefly: reaction of the protease with the serpin bait EGVD/AE-ACT.
The molecule B1 had a k*app (second order rate constant) of 652. The molecule B2 displayed a k*app (second order rate constant) of 1130.

B3 gave a k*app (second order rate constant) of 30.2.

In turn, B4 came in with a k*app (second order rate constant) of 147. In the case of B5, the k*app (second order rate constant) was 649.

The target in another assay is Human Factor B (human) (UniProt P00751). Briefly: cell-based or functional assay.
Human Factor B (human), sequence (P00751 26-764 limits assumed): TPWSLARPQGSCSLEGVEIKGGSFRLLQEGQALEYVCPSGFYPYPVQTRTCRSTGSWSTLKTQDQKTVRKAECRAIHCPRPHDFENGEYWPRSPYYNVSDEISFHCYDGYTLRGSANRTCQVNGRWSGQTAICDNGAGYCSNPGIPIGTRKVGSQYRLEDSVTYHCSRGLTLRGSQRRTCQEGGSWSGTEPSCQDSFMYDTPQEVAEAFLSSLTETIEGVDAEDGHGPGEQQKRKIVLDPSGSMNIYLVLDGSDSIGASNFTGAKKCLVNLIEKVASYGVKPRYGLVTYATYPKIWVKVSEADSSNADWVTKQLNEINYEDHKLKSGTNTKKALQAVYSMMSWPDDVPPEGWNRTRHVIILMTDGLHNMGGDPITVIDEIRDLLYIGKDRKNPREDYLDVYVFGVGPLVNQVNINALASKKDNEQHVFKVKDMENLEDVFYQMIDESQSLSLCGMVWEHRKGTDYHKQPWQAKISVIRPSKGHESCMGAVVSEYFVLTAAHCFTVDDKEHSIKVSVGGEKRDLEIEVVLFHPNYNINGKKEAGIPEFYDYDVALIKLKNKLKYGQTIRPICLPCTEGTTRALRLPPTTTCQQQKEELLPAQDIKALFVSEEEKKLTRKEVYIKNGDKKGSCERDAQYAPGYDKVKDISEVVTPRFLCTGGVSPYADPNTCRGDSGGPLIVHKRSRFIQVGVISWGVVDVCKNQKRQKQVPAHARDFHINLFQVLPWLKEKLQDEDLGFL
Regarding B6, the fB Cleavage EC50 was 10.2 µM. The same measure, in the same setting: the result for B7 reads 6.64 µM; that for B8, 0.83 µM; that for B9, 7.77 µM.

As for B10, the fB Cleavage EC50 is 3.28 µM. As to B11, the fB Cleavage EC50 is 9.01 µM. Same read-out and setting: with B12 the figure was 7.13 µM; with B13, 1.26 µM.

Molecule B14 displayed a fB Cleavage EC50 of 3.16 µM. Molecule B15 gave a fB Cleavage EC50 of 0.546 µM.

In turn, B16 came in with a fB Cleavage EC50 of 7.51 µM. For B17, the fB Cleavage EC50 is 0.65 µM and the fB Cleavage, 80% plasma EC50 is 21 µM. Consider B18, for which the fB Cleavage EC50 was found to be 5.99 µM. Still for that read-out and setting: the result for B19 reads 3.74 µM.

B20 came in with a fB Cleavage EC50 of 7.98 µM. Same read-out and setting: the result for B21 reads 3.48 µM.
